In patent US20220251215A1 (Regeneron, published 2022):
Substitutions are numbered along the chain they refer to.

B1: mAb24958N (antibody, human IgG4 S228P, kappa, V domains shown)
VH: QVQLQESGPGLVKPSQTLSLTCTVSGGSIISDGYYWSWIRQHPGKGLEWIGYVDYSGNTYYNPSLKSRIIMSVDTSKNQFSLKLTSVTAADTAVYFCVREGPLRDAFEIWGQGTMVTVSS
VL: DIQMTQSPSSLSASVGDRVTITCRTSQSISRYLNWYQQKPGKAPKLLIFAASSLQSGVPSRFSGSGSGADFTLTISSLQPEDFATYYCQQSYSTPPITFGQGTRLEIKR
B2: mAb24959N (antibody, human IgG4 S228P, kappa, V domains shown)
VH: QLQLLESGPGLVKPSETLSLICTVSGGSIRGSSYYWGWIRQPPEKGLEWIGSIYSSGSTYYNPSLKSRVTISADTSKNQFSLKLSSVTAADTAVYYCARHGGITAVQLEFDPWGQGTLVTVSS
VL: DIQMTQSPSSLSASVGDRVTITCQASQDISNYLKWYQQKPGKAPKILIHDASNLEIGVPSRFSGSGAGTDFIFTISSLQPEDIGTYYCQQYDNLPITFGQGTRLEIKR
B3: mAb28035P (antibody, human IgG4 S228P, kappa, V domains shown)
VH: QVQLVQSGAEVMKPGASVKVSCKVSGYTLSDLSMHWVRQAPGKGLEWMGGFDFEHGKTIYAQKFQGRVTMTEDTSTDTTYMELSSLRSEDTAVYYCAKVPNWGFFDYWGQGTLVTVSS
VL: not shown
B4: mAb28037P2 (antibody, human IgG4 S228P, kappa, V domains shown)
VH: QVQLQESGPGLVKPSETLSLTCTVSGDSISVYYWTWIRQPPGKGLEWIGYVHYTGYTNYNPSLKSRVTMSVDTAKKQISLKVRSVTAADTAVYYCARTIPAAAHYYHGTDVWGPGTTVTVSS
VL: DIQMTQSPSSLSASVGDRVTITCQANQDIRKYLNWYQQKSGKAPTLLIYEASNLETGAPSTFSGSGSGTEFTFTISSLRPEDIATYYCQQYESLPLTFGGGTKVEIKR
B5: mAb28042P (antibody, human IgG4 S228P, kappa, V domains shown)
VH: QLQLQESDPGLVKPSETLSLTCTVSGDSIRNSNYYWGWIRQPPGKGLEWIGSIYFSGRTYFNPSLKSRVTIPVDMSKNQFSLMLNSVTATDTAVYYCARHGGITAAGGFFDYWGQGTLVTVSS
VL: DIQMTQSPSSLSASVGDRVTITCQASQDISNYLNWYQQKPGKAPNVLIYDASNLETGVPSRFSGSGSGTDFTFTISSLQPEDFATYYCQQNDNLPLTFGGGTKVEIKR
B6: mAb28075P (antibody, human IgG4 S228P, kappa, V domains shown)
VH: EVQLVESGGGVVQPGGSLRLSCAASGFTFDDYAMHWVRQAPGKGLEWVSLISGDGDNTYYADSVKGRFTISRDNNKNSLYLQMNSLRTEDTAFYYCAKELIFGKVLHDFYYYVMDVWGQGTTVTVSS
VL: not shown
B7: mAb28105P (antibody, human IgG4 S228P, kappa, V domains shown)
VH: EVQLVESGGGVVQPGGSLRLSCEASGFIFDDYAMHWVRQAPGKGLEWVSLISGDGDIIYYADSVKGRFTISRDNSKNSLYLQMNSLIIEDTALYYCAKDWVFGVVMTHYWYFGLDVWGQGTTVTVSS
VL: B1 VL with V15E, T25A, R31T, F49Y, A50G, A69T, R104K, L105V
B8: mAb28113P (antibody, human IgG4 S228P, kappa, V domains shown)
VH: EVQLVESGGGVVQPGGSLRLSCAASGFTFDDYAMHWVRQAPGKGLEWVSLISGGGGGTYYSDSVKGRFTISRDTSKDSLYLQMNSLRTEDTALYYCAKDMVFGVVTPYYYFALDVWGQGTTVTVSS
VL: not shown
B9: mAb29814P (antibody, human IgG4 S228P, kappa, V domains shown)
VH: QVQLVESGGGVVQPGRSLRLSCVASGFTFSSYGMHWVRQAPGKGLEWVAVIWYVGSNKYYGDSVKGRFTISRDNSKNTLYLQMNSLRAEDTAVYYCARDLIADRPGYYYNGMDVWGQGTTVTVSS
VL: EIVMTQSPVTLFVSPGERATLSCRASQSVNTNLAWYQQQPGQAPRLLIHGASTRPTGVPARFSGSGSGTEFTLIISSLQSEDFAVYYCQQYNNWPPWTFGQGTKVEIKR
B10: mAb29822P2 (antibody, human IgG4 S228P, kappa, V domains shown)
VH: EVQLVESGGGVVQPGGSLRLSCAVSGFTFDDYAMHWVRQAPGKGLEWVSLISGDGGSTHYADSVKGRFTISRDNSKNSLYLQMNSLRTGDTALYYCAKDMIFAVVITDYHYYGMDVWGQGTTVTVSS
VL: not shown
B11: mAb24956N (antibody, human IgG4 S228P, kappa, V domains shown)
VH: EVQLVESGGGVVQPGGSLRLSCAASGFTFDDYAMYWVRQAPGKGLEWVSLISGDGGSMYYADSVKGRFTISRDNSKNSLYLQMNSLRTEDTALYYCAKDMIFYAFWSGYGSSDYYYYVMDVWGQGTTVTVYS
VL: not shown
B12: mAbm24955N (antibody, V domains shown)
VH: EVQLVESGGGVVQPGGSLRLSCVASGFTFDDYAMYWVRQVPGKDLEWVSLISGDGDITYYVDSVKGRFTVSRDNNKNSLYLQMKSLRVEDTALYYCAKDMIYYASWSGYGSSDYYYYVMDVWGQGTTVTVSS
VL: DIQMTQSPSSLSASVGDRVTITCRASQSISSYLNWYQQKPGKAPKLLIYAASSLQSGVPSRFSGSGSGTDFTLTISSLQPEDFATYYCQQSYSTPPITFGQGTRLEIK
notes: the prefix mAbm is not explained (perhaps a mouse constant region)

Columns and labels:
[1] = molecular target: T1, monomeric HLA-A2:NY-ESO-1(156-165) (V at position 165) peptide complex, 2906; test: SPR, 25 C, antibody captured, monomeric complex injected;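 further: antibody held on sensor chip via immobilized anti-human or anti-mouse Fc antibody, rate constants derived by fitting sensorgrams to a 1:1 binding model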
T1 construct: also called soluble HLA-A2:NY-ESO-1 peptide complex

[2] = molecular target: HLA-A2 on T2 cells pulsed with EARS2: 306-314 peptide (human); test: flow cytometry, 10 ug/ml, pulsed T2 cells
[3] = molecular target: T2, HLA-A2 on T2 cells pulsed with NY-ESO-1:157-165, wt peptide (C165) (human); test: flow cytometry, 10 ug/ml, pulsed T2 cells
T2 construct: also called T2 Pulsed NY-ESO-1_157-165

[4] = molecular target: HLA-A2 on T2 cells pulsed with FBXL22: 4-12 peptide (human); test: flow cytometry, 10 ug/ml, pulsed T2 cells
[5] = molecular target: HLA-A2 on T2 cells pulsed with MAGEH1: 90-98 peptide (human); test: flow cytometry, 10 ug/ml, pulsed T2 cells
[6] = molecular target: HLA-A2 on T2 cells pulsed with URB1: 1853-1861 peptide (human); test: flow cytometry, 10 ug/ml, pulsed T2 cells
[7] = molecular target: HLA-A2 on T2 cells pulsed with GRID1: 7-15 peptide (human); test: flow cytometry, 10 ug/ml, pulsed T2 cells
[8] = molecular target: HLA-A2 on T2 cells pulsed with ITCH (807-815) peptide (human); test: flow cytometry, 10 ug/ml, pulsed T2 cells
[9] = molecular target: T2, HLA-A2 on T2 cells pulsed with …; test: flow cytometry, peptide-pulsed T2 cells
[10] = molecular target: HLA-A2 on T2 cells pulsed with BCL9L: 1351-1359 peptide (human); test: flow cytometry, 10 ug/ml, pulsed T2 cells
[11] = molecular target: HLA-A2 on T2 cells pulsed with ZDHHC1 (376-384) peptide (human); test: flow cytometry, 10 ug/ml, pulsed T2 cells
[12] = molecular target: T1, monomeric HLA-A2:NY-ESO-1(156-165) (V …); test: SPR, 37 C, antibody captured, monomeric complex injected

Binder | Kd [1] [nM] | t½ [1] [min] | ratio of MFI, pulsed to unpulsed [2] [ratio] | ratio of MFI, pulsed to unpulsed [3] [ratio] | ratio of MFI, pulsed to unpulsed [4] [ratio] | ratio of MFI, pulsed to unpulsed [5] [ratio] | ratio of MFI, pulsed to unpulsed [6] [ratio] | ratio of MFI, pulsed to unpulsed [7] [ratio] | ratio of MFI, pulsed to unpulsed [8] [ratio] | EC50 [9] [nM] | koff [1] [s⁻¹] | kon [1] [M⁻¹ s⁻¹] | ratio of MFI, pulsed to unpulsed [10] [ratio] | ratio of MFI, pulsed to unpulsed [11] [ratio] | Kd [12] [nM] | koff [12] [s⁻¹] | kon [12] [M⁻¹ s⁻¹] | t½ [12] [min]
B1 | 2.77 | 65.4 | 0.6 | 98.6 | 0.5 | 0.5 | 0.6 | 0.7 | 1 | 19 | – | – | – | – | – | – | – | –
B2 | 1.23 | 22.3 | 0.6 | 131 | 0.5 | 0.4 | 0.6 | 3.2 | 0.9 | 1.1 | 0.000517 | 421000 | 80.7 | 0.4 | – | – | – | –
B3 | 0.342 | 75.9 | 0.6 | 131 | 0.5 | 0.4 | 0.5 | 1.4 | 1 | 2.7 | 0.000152 | 445000 | 170 | 0.9 | 0.378 | 0.000253 | 669000 | 45.7
B4 | 0.692 | 37.7 | 0.6 | 137 | 0.5 | 0.4 | 0.6 | 0.7 | 1.3 | 0.78 | 0.000307 | 443000 | 52.3 | 0.5 | 2.76 | 0.00183 | 664000 | 6.3
B5 | 0.55 | 58 | 0.6 | 134 | 0.5 | 0.4 | 0.5 | 17.4 | 0.7 | 1.6 | 0.000199 | 362000 | 46.5 | 0.5 | 2.09 | 0.00117 | 561000 | 9.9
B6 | 0.388 | 32.8 | 0.5 | 58.8 | 0.5 | 0.5 | 0.5 | 1.4 | 1 | 0.38 | – | – | 1.5 | – | 1 | – | – | 9.1
B7 | 0.386 | 62.8 | 0.6 | 126 | 0.5 | 0.5 | 0.6 | 0.7 | 1 | 1.8 | – | – | – | 0.5 | 0.586 | – | – | 21.3
B8 | 0.639 | 35.5 | 0.5 | 115 | 0.5 | – | 0.6 | 0.9 | 0.9 | 0.6 | – | – | 1 | – | 1.94 | – | – | 7.9
B9 | – | – | 0.6 | 124 | 0.5 | 0.4 | 7.9 | 1.6 | 0.9 | 1.1 | – | – | 150 | 0.6 | – | – | – | –
B10 | – | – | 0.5 | 36.7 | – | – | – | 0.7 | 0.8 | 5.4 | – | – | 0.8 | – | – | – | – | –
B11 | 0.387 | 31.6 | 0.6 | 125 | 0.5 | – | 0.5 | 1 | 0.9 | 0.47 | – | – | – | – | – | – | – | –
B12 | 2.27 | 9 | – | – | – | – | – | – | – | – | – | – | – | – | – | – | – | –
